In the supplement of paper PMC10201428:
± gives the standard deviation of the averaged measurements.

B1: library; a variant is named by its letters at N, in order (parent)
chain: AATGTTGTTGATGCAACCATAAAGTGATATTTAATAATTATTTATAATCAGCAACTTAACCACAAAACAACCATATATTGATATNTCACAAAACAACCATAANTTGATATTTTTGTGAATCGAGTATTTCAGCAAAACTACTGCAGTAAGAA

Experiments:
[1] = variants of: B1; experiment: relative integration efficiency (T-LR orientation) vs wild-type transposon end (log2 (normalized fold change)); transposon end mutated: left end; higher = more efficient transposition; conditions: with VchCAST RNA-guided transposition machinery (E. coli BL21(DE3) host, lacZ target)
In short: (§1)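 Barcode abundances in input plasmids and in genomic integration junctions were obtained by PCR amplification and Illumina sequencing. These came from E. coli BL21(DE3) co-transformed with a T7-driven effector plasmid and a pUC57 donor carrying 1549 left-end or 1849 right-end transposon variants, then plated with 0.1 mM IPTG at 37°C for 18 h. Relative integration efficiency is the output/input fold change, normalised to reference barcodes and log-transformed.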

[2] = variants of: B1; experiment: relative integration efficiency (T-RL orientation) vs wild-type transposon end (log2 (normalized fold change)); transposon end mutated: left end; higher = more efficient transposition; conditions: with VchCAST RNA-guided transposition machinery (E. coli BL21(DE3) host, lacZ target)
In short: as §1

Row | Variant | relative integration efficiency (log2) [1] | relative integration efficiency (log2) [2]
1 | AATGTTGTTGATGCAACCATAAAGTGATATTTAATAATTATTTATAATCAGCAACTTAACCACAAAACAACCATATATTGATATCTCACAAAACAACCATAAGTTGATATTTTGGTGAAACGAGTATTTCAGCAAAACTACTGCAGTAAGAA | 0.16 ± 0.11 | -0.2 ± 0.041
2 | AATGTTGTTGATGCAACCATAAAGTGATATTTAATAATTATTTATAATCAGCAACTTAACCACAAAACAACCATATATTGATATCTCACAAAACAACCATAAGTTGATATTTTTGGTAATCGAGTATTTCAGCAAAACTACTGCAGTAAGAA | -0.146 ± 0.0071 | -0.273 ± 0.045
3 | AATGTTGTTGATGCAACCATAAAGTGATATTTAATAATTATTTATAATCAGCAACTTAACCACAAAACAACCATATATTGATATCTCACAAAACAACCATAAGTTGATATTTTTGTGAAGCGAGTATTTCAGCAAAACTACTGCAGTAAGAA | -0.103 ± 0.1 | -0.231 ± 0.1
4 | AATGTTGTTGATGCAACCATAAAGTGATATTTAATAATTATTTATAATCAGCAACTTAACCACAAAACAACCATATATTGATATCTCACAAAACAACCATAAGTTGATATTTTTGTGAACCGAGTATTTCAGCAAAACTACTGCAGTAAGAA | -0.00648 ± 0.1 | -0.131 ± 0.053
5 | AATGTTGTTGATGCAACCATAAAGTGATATTTAATAATTATTTATAATCAGCAACTTAACCACAAAACAACCATATATTGATATCTCACAAAACAACCATAAGTTGATATTTTTGTGAAACGAGTATTTCAGCAAAACTACTGCAGTAAGAA | 0.11 ± 0.41 | -0.141 ± 0.026
6 | AATGTTGTTGATGCAACCATAAAGTGATATTTAATAATTATTTATAATCAGCAACTTAACCACAAAACAACCATATATTGATATCTCACAAAACAACCATAAGTTGATATTTTACACAATCGAGTATTTCAGCAAAACTACTGCAGTAAGAA | -0.217 ± 0.74 | -0.00788 ± 0.19
7 | AATGTTGTTGATGCAACCATAAAGTGATATTTAATAATTATTTATAATCAGCAACTTAACCACAAAACAACCATATATTGATATCTCACAAAACAACCATAAGTTGATATTTTTGACTTTCGAGTATTTCAGCAAAACTACTGCAGTAAGAA | 0.00543 ± 0.19 | 0.0211 ± 0.042
8 | AATGTTGTTGATGCAACCATAAAGTGATATTTAATAATTATTTATAATCAGCAACTTAACCACAAAACAACCATATATTGATATCTCACAAAACAACCATAAGTTGATATTTTTGCGAATCGAGTATTTCAGCAAAACTACTGCAGTAAGAA | 0.235 ± 0.36 | -0.0857 ± 0.085
9 | AATGTTGTTGATGCAACCATAAAGTGATATTTAATAATTATTTATAATCAGCAACTTAACCACAAAACAACCATATATTGATATCTCACAAAACAACCATAAGTTGATATTTTTGGGAATCGAGTATTTCAGCAAAACTACTGCAGTAAGAA | 0.159 ± 0.61 | 0.0899 ± 0.05
10 | AATGTTGTTGATGCAACCATAAAGTGATATTTAATAATTATTTATAATCAGCAACTTAACCACAAAACAACCATATATTGATATCTCACAAAACAACCATAAGTTGATATTTTTGAGAATCGAGTATTTCAGCAAAACTACTGCAGTAAGAA | 0.317 ± 0.21 | 0.0633 ± 0.024
11 | AATGTTGTTGATGCAACCATAAAGTGATATTTAATAATTATTTATAATCAGCAACTTAACCACAAAACAACCATATATTGATATCTCACAAAACAACCATAAGTTGATATTTTTGACAATCGAGTATTTCAGCAAAACTACTGCAGTAAGAA | 0.431 ± 0.71 | 0.161 ± 0.0064
12 | AATGTTGTTGATGCAACCATAAAGTGATATTTAATAATTATTTATAATCAGCAACTTAACCACAAAACAACCATATATTGATATCTCACAAAACAACCATAAGTTGATATTTTGGTGAATCGAGTATTTCAGCAAAACTACTGCAGTAAGAA | -0.0542 ± 0.0021 | -0.0633 ± 0.064
13 | AATGTTGTTGATGCAACCATAAAGTGATATTTAATAATTATTTATAATCAGCAACTTAACCACAAAACAACCATATATTGATATCTCACAAAACAACCATAAGTTGATATTTTCGTGAATCGAGTATTTCAGCAAAACTACTGCAGTAAGAA | -0.293 ± 0.5 | -0.448 ± 0.095
14 | AATGTTGTTGATGCAACCATAAAGTGATATTTAATAATTATTTATAATCAGCAACTTAACCACAAAACAACCATATATTGATATCTCACAAAACAACCATAAGTTGATATTTTGTTGAATCGAGTATTTCAGCAAAACTACTGCAGTAAGAA | 0.781 ± 0.54 | -0.471 ± 0.32
15 | AATGTTGTTGATGCAACCATAAAGTGATATTTAATAATTATTTATAATCAGCAACTTAACCACAAAACAACCATATATTGATATCTCACAAAACAACCATAAGTTGATATTTTACTGAATCGAGTATTTCAGCAAAACTACTGCAGTAAGAA | -0.272 ± 0.35 | -0.342 ± 0.024
16 | AATGTTGTTGATGCAACCATAAAGTGATATTTAATAATTATTTATAATCAGCAACTTAACCACAAAACAACCATATATTGATATCTCACAAAACAACCATAAGTTGATATTTTTGGTCCTCGAGTATTTCAGCAAAACTACTGCAGTAAGAA | -0.21 ± 0.42 | 0.0794 ± 0.11
17 | AATGTTGTTGATGCAACCATAAAGTGATATTTAATAATTATTTATAATCAGCAACTTAACCACAAAACAACCATATATTGATATCTCACAAAACAACCATAAGTTGATATTTTTGGTCCGATCTGATTTCAGCAAAACTACTGCAGTAAGAA | -0.144 ± 0.39 | -0.0959 ± 0.032
18 | AATGTTGTTGATGCAACCATAAAGTGATATTTAATAATTATTTATAATCAGCAACTTAACCACAAAACAACCATATATTGATATCTCACAAAACAACCATAAGTTGATATTTTGTGTAATCGAGTATTTCAGCAAAACTACTGCAGTAAGAA | -0.295 ± 0.33 | -0.309 ± 0.015
19 | AATGTTGTTGATGCAACCATAAAGTGATATTTAATAATTATTTATAATCAGCAACTTAACCACAAAACAACCATATATTGATATCTCACAAAACAACCATAAGTTGATATTTTGTGTCCGATCTGATTTCAGCAAAACTACTGCAGTAAGAA | 0.318 ± 0.049 | 0.295 ± 0.074
